For one assay, the target named is T1, MDM2 (UniProt Q00987 1-491).
T1 construct: MDM2, the protein target of pb13
The experiment in a line: fluorescence polarisation; competition assay on MDM2 (reported assay, ref. 17); peptides purified by HPLC to >95%; tracer not named. To be noted: both partners purified.

Another assay concerns the target T2, streptavidin (UniProt P22629 25-183).
T2 construct: streptavidin, model target; Source may be told in the ESI
The experiment in a line: SPR; binding of peptide to streptavidin. As to conditions: both partners purified.

This note sets out measurements from article PMC8409457, “An evolution-inspired strategy to design disulfide-rich peptides tolerant to extensive sequence manipulation†” (Chemical Science, 2021).

Bridges are numbered along the chain shown (N, C = ends). Where no end group is shown, it is not given here.

T2 sequence (P22629 25-183): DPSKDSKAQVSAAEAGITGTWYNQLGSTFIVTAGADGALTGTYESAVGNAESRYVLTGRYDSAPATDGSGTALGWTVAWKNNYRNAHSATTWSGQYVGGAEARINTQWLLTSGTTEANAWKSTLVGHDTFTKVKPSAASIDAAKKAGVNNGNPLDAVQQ
T1 sequence (Q00987 whole entry): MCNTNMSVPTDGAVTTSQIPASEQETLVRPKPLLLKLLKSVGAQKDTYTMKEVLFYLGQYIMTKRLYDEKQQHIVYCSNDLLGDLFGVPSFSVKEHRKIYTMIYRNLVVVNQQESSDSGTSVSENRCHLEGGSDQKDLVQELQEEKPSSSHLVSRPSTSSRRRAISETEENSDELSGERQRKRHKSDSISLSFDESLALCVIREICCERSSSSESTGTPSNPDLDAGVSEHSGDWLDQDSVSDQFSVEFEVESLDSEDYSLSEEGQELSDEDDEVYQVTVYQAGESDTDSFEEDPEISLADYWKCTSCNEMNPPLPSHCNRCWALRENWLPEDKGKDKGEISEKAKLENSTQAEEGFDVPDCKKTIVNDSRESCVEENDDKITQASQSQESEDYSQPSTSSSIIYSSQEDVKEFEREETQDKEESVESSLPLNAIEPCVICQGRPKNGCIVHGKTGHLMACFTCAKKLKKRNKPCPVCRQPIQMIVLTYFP

The molecule GCEKATESESPCPCIFPELCPWIVCC (disulfide 12-25, 14-20, 2-26) [oxidized peptide 15] had a Ki in the assay with MDM2 of 89 nM.
Consider GCGSDEACFCPCSHPENCPMAQHC (disulfide (positions not given here)) [tricyclic peptide 17], for which, in the assay with streptavidin, the dissociation constant (Kd) was 38 nM.
